Results on 2 molecules are retold here after patent US20050123972A1 (Bristol-Myers Squibb, published 2005).

B2: human eotaxin (125I-labeled human eotaxin, Perkin Elmer #NEX-314; unlabeled recombinant human eotaxin, R&D Systems #320-EO/CF) (ligand)
chain: not shown
modifications: 125I label (position not given) on the tracer form
notes: also called labeled (hot) eotaxin

Assay [1] addresses B2. The assay can be described thus: 125I-eotaxin binding to CHO CCR3/2 clone 5.5 cells, filter plate assay (FIG. 1). The method, then:
(§1) Invest. 97:604). In order to compare the ability of cells expressing chimeric human CCR3/2 molecules to that of cells expressing endogenous human CCR3 to bind eotaxin, a binding assay was performed. Depending upon the questions being asked, the cells in question were either human or mouse eosinophils, CHO-K1 cells expressing recombinant CCR3 or CCR3/2, parental CHO-K1 cells or other cell types. All assay steps were conducted at room temperature. Multiscreen assay plates (#MABVN1250, Millipore Inc., Marlborough, Mass.) were incubated with 100 μl/well of blocking solution (7.5 μg/ml protamine in PBS) to block non-specific binding. After 20 minutes, the blocking solution was removed and replaced with 100 μl of binding buffer, (RPMI 1640 (Life Technologies, Grand Island, N.Y.) containing 0.1% bovine serum albumin and 20 mM HEPES buffer) and incubated for at least an additional 10 minutes.
(§2) When ready to use plate(s), the following procedure was employed. […]
(§3) Binding data were analyzed using Microsoft EXCEL and then graphed using […] […]

Assay [2] deals with T1, wild-type human CCR3 (endogenous, on native human eosinophils) (human, UniProt P51677 1-355).
T1 construct: This is the endogenous receptor on human eosinophils; also called eotaxin receptor; wild-type intact receptor in eosinophils
T1 sequence: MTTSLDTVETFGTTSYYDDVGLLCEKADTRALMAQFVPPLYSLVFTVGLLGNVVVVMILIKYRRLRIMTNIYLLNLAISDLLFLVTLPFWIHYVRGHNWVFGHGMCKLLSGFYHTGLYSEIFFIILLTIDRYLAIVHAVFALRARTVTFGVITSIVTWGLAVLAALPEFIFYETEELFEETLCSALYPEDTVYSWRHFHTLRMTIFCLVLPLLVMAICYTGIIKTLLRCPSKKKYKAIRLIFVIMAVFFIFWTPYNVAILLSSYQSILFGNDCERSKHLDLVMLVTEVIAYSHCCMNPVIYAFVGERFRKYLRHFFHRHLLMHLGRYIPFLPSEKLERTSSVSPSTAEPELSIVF
The assay can be described thus: 125I-eotaxin binding to cells, filter plate assay. How it is done:
as §1, §2, §3

B1: chimeric CCR3/2 receptor (human CCR3 residues 1-310 joined to the cytoplasmic tail of human CCR2 isoform B), expressed on CHO-K1 cells (receptor)
chain: MTTSLDTVETFGTTSYYDDVGLLCEKADTRALMAQFVPPLYSLVFTVGLLGNVVVVMILIKYRRLRIMTNIYLLNLAISDLLFLVTLPFWIHYVRGHNWVFGHGMCKLLSGFYHTGLYSEIFFIILLTIDRYLAIVHAVFALRARTVTFGVITSIVTWGLAVLAALPEFIFYETEELFEETLCSALYPEDTVYSWRHFHTLRMTIFCLVLPLLVMAICYTGIIKTLLRCPSKKKYKAIRLIFVIMAVFFIFWTPYNVAILLSSYQSILFGNDCERSKHLDLVMLVTEVIAYSHCCMNPVIYAFVGERFRKYLSVFFRKHITKRFCKQCPVFYRETVDGVTSTNTPSTGEQEVSAGL
notes: Expressed from the pFLAG-CMV-3 vector in CHO-K1 cells; also called CCR3/2 chimera; CHO CCR3/2 clone 5.5
On to B1, for which the binding result in assay [1] is given as “binds”.

For the molecule B2, the binding result in assay [2] is “binds”.
